Test [1] concerns the target N-terminally biotinylated URAT1 peptide (human). The test can be described thus: SPR. On the technique in general: Surface plasmon resonance follows binding to a sensor surface in real time, without labels.
Test [2] addresses URAT1 peptide (15 C-terminal residues of human URAT1), TAMRA-labelled (human). The test can be described thus: fluorescence polarisation.
The target in test [3] is NaPi-IIa peptide (15 C-terminal residues of NaPi-IIa), TAMRA-labelled (human (identical in mouse)). Briefly: fluorescence polarisation. On the technique in general: In fluorescence polarisation assays a small probe gives low polarisation when free and higher when bound to something large.
The target in test [4] is T1, full-length human PDZK1 (NHE3 regulatory factor 3, NHERF3) (human, UniProt Q5T2W1 1-519).
T1 sequence (looked up): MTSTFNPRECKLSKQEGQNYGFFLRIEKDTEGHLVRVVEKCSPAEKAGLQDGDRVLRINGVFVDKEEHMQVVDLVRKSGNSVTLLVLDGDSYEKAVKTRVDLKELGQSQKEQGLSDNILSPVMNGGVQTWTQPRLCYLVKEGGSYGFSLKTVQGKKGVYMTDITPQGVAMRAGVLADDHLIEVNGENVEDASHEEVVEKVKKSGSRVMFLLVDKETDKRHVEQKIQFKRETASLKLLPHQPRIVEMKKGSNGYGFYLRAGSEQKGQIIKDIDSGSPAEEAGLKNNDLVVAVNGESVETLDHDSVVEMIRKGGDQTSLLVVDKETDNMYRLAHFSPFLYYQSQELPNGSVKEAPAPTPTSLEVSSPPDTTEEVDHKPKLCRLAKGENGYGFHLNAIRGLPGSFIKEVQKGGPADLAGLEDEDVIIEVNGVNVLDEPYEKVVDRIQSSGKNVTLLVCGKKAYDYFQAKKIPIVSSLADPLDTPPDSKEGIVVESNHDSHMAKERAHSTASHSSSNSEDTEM
Briefly: fluorescence polarisation.

A further test has as its target T2, full-length mouse Pdzk1 (mouse, UniProt Q9JIL4 1-519).
T2 sequence (looked up): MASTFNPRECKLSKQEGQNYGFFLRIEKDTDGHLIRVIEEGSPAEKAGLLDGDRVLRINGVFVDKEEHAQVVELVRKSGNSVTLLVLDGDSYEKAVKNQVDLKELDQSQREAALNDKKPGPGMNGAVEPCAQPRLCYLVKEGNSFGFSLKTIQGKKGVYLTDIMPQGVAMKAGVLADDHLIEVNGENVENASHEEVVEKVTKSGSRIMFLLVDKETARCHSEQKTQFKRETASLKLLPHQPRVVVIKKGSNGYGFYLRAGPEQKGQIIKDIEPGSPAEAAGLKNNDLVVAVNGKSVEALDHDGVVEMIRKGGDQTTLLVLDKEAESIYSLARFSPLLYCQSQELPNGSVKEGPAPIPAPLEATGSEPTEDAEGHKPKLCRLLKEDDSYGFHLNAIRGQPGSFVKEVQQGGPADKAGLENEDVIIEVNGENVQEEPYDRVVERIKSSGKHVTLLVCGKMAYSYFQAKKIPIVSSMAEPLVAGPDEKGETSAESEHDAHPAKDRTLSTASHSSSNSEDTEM
Briefly: fluorescence polarisation.

The target of the next test is T3, full-length mouse Nherf1 (mouse, UniProt P70441 1-355).
T3 sequence (looked up): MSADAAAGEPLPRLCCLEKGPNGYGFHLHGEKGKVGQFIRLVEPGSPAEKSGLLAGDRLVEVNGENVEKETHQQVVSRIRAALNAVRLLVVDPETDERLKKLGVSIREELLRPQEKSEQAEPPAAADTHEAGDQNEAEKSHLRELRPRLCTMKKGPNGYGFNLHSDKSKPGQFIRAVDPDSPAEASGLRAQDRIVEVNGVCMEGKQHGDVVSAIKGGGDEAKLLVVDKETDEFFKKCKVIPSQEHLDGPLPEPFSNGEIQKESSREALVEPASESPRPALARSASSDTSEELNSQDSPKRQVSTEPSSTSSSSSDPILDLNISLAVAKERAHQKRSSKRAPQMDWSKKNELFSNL
The test can be described thus: fluorescence polarisation.

Another test addresses T4, full-length human NHERF1 (human, UniProt O14745 1-358).
T4 sequence (looked up): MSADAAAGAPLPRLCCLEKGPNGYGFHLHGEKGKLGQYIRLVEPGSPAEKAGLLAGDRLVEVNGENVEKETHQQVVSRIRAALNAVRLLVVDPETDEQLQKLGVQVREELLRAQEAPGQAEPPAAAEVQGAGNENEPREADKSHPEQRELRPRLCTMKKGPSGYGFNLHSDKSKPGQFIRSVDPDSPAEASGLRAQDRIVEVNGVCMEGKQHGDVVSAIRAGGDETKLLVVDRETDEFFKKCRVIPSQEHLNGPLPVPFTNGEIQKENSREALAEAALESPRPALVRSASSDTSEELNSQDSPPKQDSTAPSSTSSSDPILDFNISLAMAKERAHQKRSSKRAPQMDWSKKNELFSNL
Briefly: fluorescence polarisation.

Test [5] concerns the target T1, full-length human PDZK1 (NHE3 …). The test can be described thus: SEC. Background: SEC sorts molecules by how far they enter the pores of the column.
The target is the same in test [6]. Briefly: SEC. This is another data set of the same source.

The values that follow come from paper doi:10.1101/2025.07.21.665923 (bioRxiv, 2025).

Where two headings read alike, the source gives them in different places. Where no end group is shown, it is not given here. TAMRA = tetramethylrhodamine Some results are limits rather than exact numbers.

By Kd is commonly meant the free concentration of one partner at which half of the binding sites on the other are occupied at equilibrium, for simple one-to-one binding. Low readings indicate a tighter complex, high ones a looser complex. The koff is a measure of how fast the partners let go of each other. As usually defined, the kon is the second-order rate constant of association. A low value points to slow association. As to “PDZ4 domain of human PDZK1 (3PDZ4), C-terminal His8-tag (domain or fragment)”, in [1], the dissociation constant Kd was 1.78 µM, the dissociation rate constant (koff) is 0.631 s⁻¹ and the kon is 354000 M⁻¹ s⁻¹. Besides, the Kd in [2] is 1.35 µM.

“PDZ2 domain of human PDZK1 (3PDZ2), C-terminal His8-tag (domain or fragment)” displayed a Kd in [2] of 22.1 µM. This lies in the double-digit micromolar range.

In turn, “PDZ3 domain of human PDZK1 (3PDZ3), C-terminal His8-tag (domain or fragment)” showed a dissociation constant (Kd) in test [2] greater than 200 µM.

Take “PDZ1 domain of human PDZK1 (3PDZ1), tag-less (domain or fragment)”: in test [1], the Kd was determined as 1.1 µM, the koff worked out at 0.494 s⁻¹ and the kon was 448000 M⁻¹ s⁻¹. Also, the Kd in test [3] stood at 12.5 µM. Further, in test [2], the Kd was 0.16 µM.

In turn, “PDZ2 domain of human NHERF1 (1PDZ2), C-terminal His8-tag (domain or fragment)” yielded a Kd in test [3] greater than 170 µM.

In the case of “PDZ1 domain of human NHERF1 (1PDZ1), C-terminal His8-tag (domain or fragment)”, in test [3], the Kd turned out to be 4.4 µM.

On to {TAMRA}-SPRLALPAHHNATRL [NaPi-IIa peptide (15 C-terminal residues of NaPi-IIa), TAMRA-labelled], for which the Kd came out at 8.1 µM in [4], 4 µM with full-length mouse Pdzk1, 4.9 µM with full-length mouse Nherf1 and 4 µM with full-length human NHERF1.

For {TAMRA}-THGTLGNSVLKSTQF [URAT1 peptide (15 C-terminal residues of human URAT1), TAMRA-labelled], the Kd with full-length human NHERF1 is greater than 70 µM.

Take {TAMRA}-THDTPDGSILMSTRL [Urat1 peptide (15 C-terminal residues of murine Urat1), TAMRA-labelled]: the figures for the equilibrium dissociation constant (Kd) in the test with full-length mouse Pdzk1 and with full-length mouse Nherf1 were 0.026 µM and 0.59 µM, respectively.

On to THGTLGNSVLKSTQF (not fully specified) [URAT1 peptide fused to the C-terminus of enhanced green fluorescent protein (GFP^URAT1)], for which the “stoichiometry N” value in [5] is 1.4 GFP^URAT1 per PDZK1 at the peak maximum; in test [6], 1.5 GFP^URAT1 per PDZK1 at the peak maximum.
